{"source": "the array DNA melting data of Ke et al.", "data": [{"test": "melting temperature; melt of duplexes", "settings": "sodium 0.0675 M; strand 1 µM", "units": {"Tm": "°C"}, "values": [{"substance": "CGACGTGCACTATGTGCTG+CAGCACATCGTGCACGTCG ((((((((((.((((((((+)))))))).))))))))))", "Tm": 51.4}, {"substance": "CGACGTGCATAATGTGCTG+CAGCACATGCAGCACGTCG ((((((((...((((((((+))))))))...))))))))", "Tm": 51.4}, {"substance": "CGACGTGCATGATGTGCTG+CAGCACATGAAGCACGTCG ((((((((.(.((((((((+)))))))).).))))))))", "Tm": 50.3}, {"substance": "CGACGTGCAGGATGTGCTG+CAGCACATTGAGCACGTCG ((((((((...((((((((+))))))))...))))))))", "Tm": 50.6}, {"substance": "CGACGTGCGTTATGTGCTG+CAGCACATACTGCACGTCG ((((((((..(((((((((+)))))))))..))))))))", "Tm": 51.6}, {"substance": "CGACGTGCATTATGTGCTG+CAGCACATCCGGCACGTCG ((((((((...((((((((+))))))))...))))))))", "Tm": 47.3}, {"substance": "CGACGTGCACCATGTGCTG+CAGCACATAAGGCACGTCG ((((((((...((((((((+))))))))...))))))))", "Tm": 44.1}, {"substance": "CGACGTGCCGTATGTGCTG+CAGCACATGTCGCACGTCG ((((((((...((((((((+))))))))...))))))))", "Tm": 49}, {"substance": "CGACGTGCAGAATGTGCTG+CAGCACATAAAGCACGTCG ((((((((...((((((((+))))))))...))))))))", "Tm": 50.5}, {"substance": "CGACGTGCGGGATGTGCTG+CAGCACATTAAGCACGTCG ((((((((...((((((((+))))))))...))))))))", "Tm": 53.9}, {"substance": "CGACGTGCGTTATGTGCTG+CAGCACATCCCGCACGTCG (((((((((..((((((((+))))))))..)))))))))", "Tm": 51.7}, {"substance": "CGACGTGCCCAATGTGCTG+CAGCACATTCGGCACGTCG (((((((((.(((((((((+))))))))).)))))))))", "Tm": 55.8}, {"substance": "CGACGTGCCATATGTGCTG+CAGCACATAAAGCACGTCG ((((((((..(((((((((+)))))))))..))))))))", "Tm": 51.3}, {"substance": "CGACGTGCCTAATGTGCTG+CAGCACATTAGGCACGTCG (((((((((((((((((((+)))))))))))))))))))", "Tm": 63.6}, {"substance": "CGACGTGCATCATGTGCTG+CAGCACATTACGCACGTCG ((((((((.(.((((((((+)))))))).).))))))))", "Tm": 48.1}, {"substance": "CGACGTGCGCGATGTGCTG+CAGCACATGTAGCACGTCG ((((((((...((((((((+))))))))...))))))))", "Tm": 52.6}, {"substance": "CGACGTGCTAGATGTGCTG+CAGCACATTGAGCACGTCG (((((((((..((((((((+))))))))..)))))))))", "Tm": 54}, {"substance": "CGACGTGCATCATGTGCTG+CAGCACATAGAGCACGTCG ((((((((...((((((((+))))))))...))))))))", "Tm": 50.1}, {"substance": "CGACGTGCTTCATGTGCTG+CAGCACATGTAGCACGTCG (((((((((.(((((((((+))))))))).)))))))))", "Tm": 57}, {"substance": "CGACGTGCCTAATGTGCTG+CAGCACATTTAGCACGTCG ((((((((..(((((((((+)))))))))..))))))))", "Tm": 51.5}, {"substance": "CGACGTGCATGATGTGCTG+CAGCACATGCAGCACGTCG ((((((((...((((((((+))))))))...))))))))", "Tm": 50.4}, {"substance": "CGACGTGCTAAATGTGCTG+CAGCACATTGCGCACGTCG ((((((((..(((((((((+)))))))))..))))))))", "Tm": 51.2}, {"substance": "CGACGTGCACGATGTGCTG+CAGCACATGGCGCACGTCG ((((((((.(.((((((((+)))))))).).))))))))", "Tm": 50.2}, {"substance": "CGACGTGCCGGATGTGCTG+CAGCACATCCTGCACGTCG ((((((((.((((((((((+)))))))))).))))))))", "Tm": 58.9}, {"substance": "CGACGTGCAATATGTGCTG+CAGCACATAAAGCACGTCG ((((((((..(((((((((+)))))))))..))))))))", "Tm": 52}, {"substance": "CGACGTGCGCCATGTGCTG+CAGCACATGTCGCACGTCG (((((((((.(((((((((+))))))))).)))))))))", "Tm": 59.7}, {"substance": "CGACGTGCACTATGTGCTG+CAGCACATCTCGCACGTCG ((((((((...((((((((+))))))))...))))))))", "Tm": 41.6}, {"substance": "CGACGTGCGTGATGTGCTG+CAGCACATTCGGCACGTCG ((((((((...((((((((+))))))))...))))))))", "Tm": 51.5}, {"substance": "CGACGTGCCAGATGTGCTG+CAGCACATAGGGCACGTCG (((((((((..((((((((+))))))))..)))))))))", "Tm": 55.8}, {"substance": "CGACGTGCCGCATGTGCTG+CAGCACATGACGCACGTCG ((((((((..(((((((((+)))))))))..))))))))", "Tm": 51.2}, {"substance": "CGACGTGCTGAATGTGCTG+CAGCACATTTCGCACGTCG ((((((((..(((((((((+)))))))))..))))))))", "Tm": 53.1}, {"substance": "CGACGTGCTCGATGTGCTG+CAGCACATCCTGCACGTCG ((((((((..(((((((((+)))))))))..))))))))", "Tm": 53}, {"substance": "CGACGTGCTGTATGTGCTG+CAGCACATCCTGCACGTCG ((((((((.(.((((((((+)))))))).).))))))))", "Tm": 51.5}, {"substance": "CGACGTGCCTCATGTGCTG+CAGCACATGACGCACGTCG ((((((((.((((((((((+)))))))))).))))))))", "Tm": 52.7}, {"substance": "CGACGTGCAACATGTGCTG+CAGCACATTCTGCACGTCG (((((((((..((((((((+))))))))..)))))))))", "Tm": 50.1}, {"substance": "CGACGTGCTTAATGTGCTG+CAGCACATAATGCACGTCG ((((((((.(.((((((((+)))))))).).))))))))", "Tm": 51.5}, {"substance": "CGACGTGCCGTATGTGCTG+CAGCACATATCGCACGTCG ((((((((..(((((((((+)))))))))..))))))))", "Tm": 51.8}, {"substance": "CGACGTGCGTGATGTGCTG+CAGCACATGGTGCACGTCG ((((((((...((((((((+))))))))...))))))))", "Tm": 47.8}, {"substance": "CGACGTGCAACATGTGCTG+CAGCACATGTGGCACGTCG ((((((((.((((((((((+)))))))))).))))))))", "Tm": 59.3}, {"substance": "CGACGTGCATTATGTGCTG+CAGCACATCTGGCACGTCG ((((((((...((((((((+))))))))...))))))))", "Tm": 48.4}, {"substance": "CGACGTGCGTAATGTGCTG+CAGCACATGTGGCACGTCG ((((((((...((((((((+))))))))...))))))))", "Tm": 51.8}, {"substance": "CGACGTGCACGATGTGCTG+CAGCACATCACGCACGTCG ((((((((..(((((((((+)))))))))..))))))))", "Tm": 51.9}, {"substance": "CGACGTGCATGATGTGCTG+CAGCACATACAGCACGTCG ((((((((...((((((((+))))))))...))))))))", "Tm": 49.5}, {"substance": "CGACGTGCCGAATGTGCTG+CAGCACATAGGGCACGTCG (((((((((..((((((((+))))))))..)))))))))", "Tm": 54.4}, {"substance": "CGACGTGCGGTATGTGCTG+CAGCACATATAGCACGTCG ((((((((..(((((((((+)))))))))..))))))))", "Tm": 56.4}, {"substance": "CGACGTGCGGCATGTGCTG+CAGCACATGCAGCACGTCG ((((((((.((((((((((+)))))))))).))))))))", "Tm": 63.1}, {"substance": "CGACGTGCTCCATGTGCTG+CAGCACATCGAGCACGTCG ((((((((((.((((((((+)))))))).))))))))))", "Tm": 55.2}, {"substance": "CGACGTGCAGAATGTGCTG+CAGCACATGTAGCACGTCG ((((((((...((((((((+))))))))...))))))))", "Tm": 53.4}, {"substance": "CGACGTGCTACATGTGCTG+CAGCACATGGAGCACGTCG (((((((((.(((((((((+))))))))).)))))))))", "Tm": 61.7}, {"substance": "CGACGTGCACTATGTGCTG+CAGCACATCGAGCACGTCG ((((((((.(.((((((((+)))))))).).))))))))", "Tm": 46.7}, {"substance": "CGACGTGCCGTATGTGCTG+CAGCACATTTCGCACGTCG ((((((((...((((((((+))))))))...))))))))", "Tm": 48.5}, {"substance": "CGACGTGCCTAATGTGCTG+CAGCACATTGCGCACGTCG ((((((((..(((((((((+)))))))))..))))))))", "Tm": 51}, {"substance": "CGACGTGCCTTATGTGCTG+CAGCACATATGGCACGTCG (((((((((.(((((((((+))))))))).)))))))))", "Tm": 57.9}, {"substance": "CGACGTGCAGTATGTGCTG+CAGCACATGAAGCACGTCG ((((((((...((((((((+))))))))...))))))))", "Tm": 50.5}, {"substance": "CGACGTGCCTTATGTGCTG+CAGCACATCACGCACGTCG ((((((((.(.((((((((+)))))))).).))))))))", "Tm": 46.7}, {"substance": "CGACGTGCCACATGTGCTG+CAGCACATTGAGCACGTCG ((((((((...((((((((+))))))))...))))))))", "Tm": 52.2}, {"substance": "CGACGTGCCGTATGTGCTG+CAGCACATGAGGCACGTCG (((((((((..((((((((+))))))))..)))))))))", "Tm": 58.7}, {"substance": "CGACGTGCACGATGTGCTG+CAGCACATGGTGCACGTCG ((((((((((.((((((((+)))))))).))))))))))", "Tm": 55.8}, {"substance": "CGACGTGCCCGATGTGCTG+CAGCACATTACGCACGTCG ((((((((...((((((((+))))))))...))))))))", "Tm": 48}, {"substance": "CGACGTGCGTAATGTGCTG+CAGCACATACCGCACGTCG (((((((((..((((((((+))))))))..)))))))))", "Tm": 54.2}, {"substance": "CGACGTGCGCAATGTGCTG+CAGCACATGTCGCACGTCG (((((((((..((((((((+))))))))..)))))))))", "Tm": 56.1}, {"substance": "CGACGTGCGACATGTGCTG+CAGCACATCGAGCACGTCG ((((((((...((((((((+))))))))...))))))))", "Tm": 54.8}, {"substance": "CGACGTGCGCCATGTGCTG+CAGCACATGAAGCACGTCG ((((((((..(((((((((+)))))))))..))))))))", "Tm": 57.1}, {"substance": "CGACGTGCTCGATGTGCTG+CAGCACATGCTGCACGTCG ((((((((...((((((((+))))))))...))))))))", "Tm": 47}, {"substance": "CGACGTGCGAGATGTGCTG+CAGCACATCTCGCACGTCG (((((((((((((((((((+)))))))))))))))))))", "Tm": 66.5}, {"substance": "CGACGTGCTTCATGTGCTG+CAGCACATGATGCACGTCG ((((((((.((((((((((+)))))))))).))))))))", "Tm": 58.8}, {"substance": "CGACGTGCGGCATGTGCTG+CAGCACATTCTGCACGTCG ((((((((.(.((((((((+)))))))).).))))))))", "Tm": 53.1}, {"substance": "CGACGTGCGCTATGTGCTG+CAGCACATGGGGCACGTCG ((((((((.(.((((((((+)))))))).).))))))))", "Tm": 56.7}, {"substance": "CGACGTGCGGCATGTGCTG+CAGCACATCATGCACGTCG ((((((((...((((((((+))))))))...))))))))", "Tm": 51.2}, {"substance": "CGACGTGCCAGATGTGCTG+CAGCACATGAGGCACGTCG (((((((((..((((((((+))))))))..)))))))))", "Tm": 55.4}, {"substance": "CGACGTGCAACATGTGCTG+CAGCACATAAGGCACGTCG ((((((((...((((((((+))))))))...))))))))", "Tm": 47.8}, {"substance": "CGACGTGCACGATGTGCTG+CAGCACATATGGCACGTCG ((((((((...((((((((+))))))))...))))))))", "Tm": 46.9}]}]}
